Reference: patent publication US20090180995A1 (NATIONAL UNIVERSITY OF SINGAPORE, published 2009)

T1: hemextin B (Hemachatus haemachatus (African …))
T1 construct: also called peak B
T1 chain: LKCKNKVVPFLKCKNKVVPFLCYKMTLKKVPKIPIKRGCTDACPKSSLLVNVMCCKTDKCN

B1: hemextin AB complex (other)
chain 1: LKCKNKLVPFLSKTCPEGKNLCYKMTMLKMPKIPIKRGCTDACPKSSLLVKVVCCNKDKCN
chain 2: LKCKNKVVPFLKCKNKVVPFLCYKMTLKKVPKIPIKRGCTDACPKSSLLVNVMCCKTDKCN
B2: hemextin A (other)
chain: LKCKNKLVPFLSKTCPEGKNLCYKMTMLKMPKIPIKRGCTDACPKSSLLVKVVCCNKDKCN
notes: also called peak A

Experiments:
TF-FVIIa complex = TF-FVIIa complex (human, UniProt P08709 61-466; P13726 33-295); assay: cell-based or functional assay
plasma kallikrein = assay: cell-based or functional assay
hemextin B = molecular target: T1, hemextin B; assay: ITC in phosphate, MOPS and Tris buffers at pH 7.4

TF-FVIIa complex, sequence (P08709 61-466 limits assumed, chain 1 of 2): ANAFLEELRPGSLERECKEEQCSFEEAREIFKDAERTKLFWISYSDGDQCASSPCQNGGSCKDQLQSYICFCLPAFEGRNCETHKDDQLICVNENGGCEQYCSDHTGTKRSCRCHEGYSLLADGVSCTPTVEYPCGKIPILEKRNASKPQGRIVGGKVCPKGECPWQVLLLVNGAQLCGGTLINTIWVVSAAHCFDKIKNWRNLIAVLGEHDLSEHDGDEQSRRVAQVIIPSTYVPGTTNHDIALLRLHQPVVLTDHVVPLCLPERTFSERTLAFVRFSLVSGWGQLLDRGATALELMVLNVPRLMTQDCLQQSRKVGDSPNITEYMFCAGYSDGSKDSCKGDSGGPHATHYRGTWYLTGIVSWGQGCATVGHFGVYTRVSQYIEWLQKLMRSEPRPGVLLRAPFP
TF-FVIIa complex, sequence (P13726 33-295 limits assumed, chain 2 of 2): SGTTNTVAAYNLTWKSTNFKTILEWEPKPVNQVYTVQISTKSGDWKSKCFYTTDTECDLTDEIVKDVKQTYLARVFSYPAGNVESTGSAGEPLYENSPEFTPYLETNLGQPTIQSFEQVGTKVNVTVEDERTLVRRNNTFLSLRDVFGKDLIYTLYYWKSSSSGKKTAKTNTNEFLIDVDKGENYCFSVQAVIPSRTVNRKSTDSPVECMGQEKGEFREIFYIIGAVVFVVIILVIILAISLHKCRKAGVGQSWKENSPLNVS

Binder | IC50, inhibition of extrinsic tenase activity (FXa formation) (TF-FVIIa complex) | IC50, inhibition of plasma kallikrein amidolytic activity (plasma kallikrein) | ΔHbin (binding enthalpy corrected for protonation) (hemextin B)
B1 | 0.1 µM | ~5 µM | 
B2 |  |  | -3.64 kcal/mol
